According to PMC4815329, “Biochemical and Molecular Characterization of a Flavonoid 3-O-glycosyltransferase Responsible for Anthocyanins and Flavonols Biosynthesis in Freesia hybrida” (Frontiers in Plant Science, 2016):

Assays:
[1] = substrate: O=c1c(O)c(-c2ccc(O)c(O)c2)oc2cc(O)cc(O)c12; assay: HPLC of glucoside product, initial rates, Lineweaver-Burk; assay type: biochemical, Freesia hybrid cultivar; conditions: apparent Km, 10 mM UDP-glucose, 100 mM potassium phosphate pH 8.0, 30°C, 2 min
Description: (§1) HPLC of glucoside product, initial rates, Lineweaver-Burk on Fh3GT1

[2] = substrate: Oc1cc(O)c2cc(O)c(-c3cc(O)c(O)c(O)c3)[o+]c2c1; assay: as above; assay type: biochemical, Freesia hybrid cultivar; conditions: apparent Km, 10 mM UDP-glucose, 100 mM potassium phosphate pH 8.0, 30°C, 2 min
Description: as §1

B1: Fh3GT1 (Freesia hybrid cultivar) (protein)
chain: MGSADRSHVALLAFPFGTHAAPLLSLGLNLASSAPHGTTFSFLSNRRPVSLPPNSAIKFYEIADGSDPEHEGHVHPEEEVRVFMEETPGNYKKALEAAVDRCGGQRVTCIVADAFLWFVGDIAAEFGVHWVPLWTGGPCSFLAHLYTDMLRNKIGTGKEADPDEDLQFLPGLSGFRVRDLPDDIVTGDLTGAFASLLHRMSIEIPRSAAAIAINTFEGLHPDIDADLASKFKKSLPIGPLNLLNPTLNQPDRFSCLAWLDKFEPHSVAYVSFGTLAALTEAELVELASGLEQSGVPFLWSLKEPGQLPAGFLDRTKDRGLVVPWVPQAEALKHVAVGASLSHCGWNSVMESVTSGVPMLCRPFLGDQTMNARAVSHVWKVGVTFENGTMTRANVAEAMKKVVVGEEGRKMRERAAAIREMAAGSVRPGGSSVQNFKALLDIVIAR
notes: full-length ORF, pET-28a(+), N-terminal His tag, E. coli BL21(DE3), Ni Sepharose purified; cDNA described in Sui et al. 2011; Asn-244 (NPTL) and Asn-386 (NGTM)
B1 was tested, and the Km [1] was 98.47 ± 4.96 µM, the kcat [1] was 4.59 ± 0.035 s⁻¹ and the kcat/Km [1] was 48500 M⁻¹ s⁻¹. The Km [2] was 58.88 ± 1.68 µM, the kcat [2] was 0.53 ± 0.01 s⁻¹ and the kcat/Km [2] was 9060 M⁻¹ s⁻¹.
